Assay results taken from ChEMBL document CHEMBL1139252, “Inhibition of purple acid phosphatase with alpha-alkoxynaphthylmethylphosphonic acids” (Bioorg Med Chem Lett, 2009).

Legend:
Conditions in all cases: Phaseolus vulgaris
[1] = substrate: O=P(O)(O)Cc1cccc2ccccc12; test: (§1) Activity of red kidney bean PAP at pH 6.2
[2] = substrate: O=P(O)(O)C(O)c1cccc2ccccc12; test: as §1
[3] = substrate: CCCCCCOC(c1cccc2ccccc12)P(=O)(O)O; test: as §1
[4] = substrate: CCCCCCCCOC(c1cccc2ccccc12)P(=O)(O)O; test: as §1
[5] = substrate: CCCCCCCCCCOC(c1cccc2ccccc12)P(=O)(O)O; test: as §1

B1: Fe(3+)-Zn(2+) purple acid phosphatase (Phaseolus vulgaris), P80366 (protein)
chain: MGVVKGLLALALVLNVVVVSNGGKSSNFVRKTNKNRDMPLDSDVFRVPPGYNAPQQVHITQGDLVGRAMIISWVTMDEPGSSAVRYWSEKNGRKRIAKGKMSTYRFFNYSSGFIHHTTIRKLKYNTKYYYEVGLRNTTRRFSFITPPQTGLDVPYTFGLIGDLGQSFDSNTTLSHYELSPKKGQTVLFVGDLSYADRYPNHDNVRWDTWGRFTERSVAYQPWIWTAGNHEIEFAPEINETEPFKPFSYRYHVPYEASQSTSPFWYSIKRASAHIIVLSSYSAYGRGTPQYTWLKKELRKVKRSETPWLIVLMHSPLYNSYNHHFMEGEAMRTKFEAWFVKYKVDVVFAGHVHAYERSERVSNIAYKITNGLCTPVKDQSAPVYITIGDAGNYGVIDSNMIQPQPEYSAFREASFGHGMFDIKNRTHAHFSWNRNQDGVAVEADSVWFFNRHWYPVDDST
For B1, the Km [1] was 5.78 mM, the Km [2] was 5.31 mM and the Km [3] was 4.28 mM. It also gave a Km [4] of 3.41 mM and a Km [5] of 3.1 mM.
